Assay results reported in the nanobody polyreactivity screen of Harvey et al. (2022).

Assay: yeast display, Sf9 membrane polyspecificity reagent, FACS + sequencing; frameworks hold sequencing errors
How it was run: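 Nanobodies from a synthetic yeast display library (Saccharomyces cerevisiae BJ5465), induced 36–48 hours with galactose, were stained 1 hour at 4 °C with 10% biotinylated, detergent-solubilized Sf9 membrane reagent, enriched on streptavidin microbeads, then FACS-sorted. Anti-HA (expression) and streptavidin (reagent binding) fluorescence set low and high (top ~1%) gates. Polyreactivity labels come from the gate of origin. Genes were colony-PCR amplified, MiSeq 2 × 250 sequenced and filtered by CDR length.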

Sequence | polyreactivity (PSR sort gate)
QVQLVESGGGLVQAGGSLRLSCAAYGRTFGRYAMGCYRPAPGKERELVAAITVGGGSKYYADSVKGRFTISRDNAKNTVYLQMNSLKPEDTAVYYCNALHTYTYRYDYYYWGQGTQVTVSS | high polyreactivity
QVQLVESGGGLVQAGGSLRLSCAAYGRTFNPYAMGWYRQAPGKERELVARITWSGGRTYYADSVKGRFTISRDNAKNTVYLQMNSLKPEDTAVYYCAARYSKYLYGRFESWGQGTQVTVSS | high polyreactivity
QVQLVESGGGLVQAGGSLRLSCAAYGRTFTTNAMGWYRQAPGKERELVAAISRLGGSTYYADSVKGRFTISRDNAKNTVYLQMNSLKPEDTAVYYCYAHLWIRGYDYWGQGTQVTVSS | high polyreactivity
QVQLVESGGGLVQAGGSLRLSCAAYGRTFTWYSMGWYRQAPGKERELVAAISKSGGSTYYSDSVKGRFTISRDNAKITVYLQMNSLKPEDTAVYYCNAEFYGYFLGYGYWGQGTQVSVSS | low polyreactivity
QVQLVESGGGLVQAGGSLRLSCAAYGRTLGYYAMGWYRPAPGQERELVAAITGSDGSTYADSVKGRFTISRDNAKNTVYLQMNSLKPEDTAVYYCNSKNEHGSLGFDYWGQGTQVTVSS | high polyreactivity
QVQLVESGGGLVQAGGSLRLSCAAYGSIFDSNTMGWYRQAPGKERELVAGISTGGSTNYADSVKGRFTISRDNAKNTVYLQMNSQKPEDTAVYYCNADLGSSYDWGQGTQVTVSS | low polyreactivity
QVQLVESGGGLVQAGGSLRLSCAAYGSIFYSYAMGWYRQAPGKERELVASIRIGSSTNYADSVKGRFTISRDNAKNTVYLQMNSLKPEDSAVYYCAARRFYKYYYGSDYWGQGTQVTVSS | high polyreactivity
QVQLVESGGGLVQAGGSLRLSCAAYGSIIRRYAMGWYRQAPGKERELVATISSGSRTYYADSVKGRFTISRDNAKNTVYLQMNSLKPEDTAVYYCNARSRRVGLTLYNYWGQGTQVTVSS | high polyreactivity
QVQLVESGGGLVQAGGSLRLSCAAYGSIIVRYAMGWYGQAPGKVRELVPTITFRDTSTYYADSVKGRFTSSRDNAKNTVYLQMNSLKPEDSAVYYCNAHIPTNRSYVPAVRGEDDYWGQGTQVTVSS | low polyreactivity
QVQLVESGGGLVQAGGSLRLSCAAYGSIRNFYAMGWNRKAPGKERELVPTISSGGNTHYADSVKGRFTISRDNAKNTVYFQMTSLKPEDTAVYYCNKVTIGGFFWYRAYDYWGQGTQVTVSS | low polyreactivity
QVQLVESGGGLVQAGGSLRLSCAAYGSTFGDYAMGWYRQAPGKERELVAAITIGGITTYADSVKGRFTISRDNAKNTVYLQMNSLKPEDTAVYYCADAERGDWDDYWGQGTQVTVSS | low polyreactivity
QVQLVESGGGLVQAGGSLRLSCAAYGSTFGWYTMGWYRQAPGKERELVATISYGGGITNYADSVKGRFTISRDNAKITVYLQMNSLKPEDTADYDCAVDNTGRSWPYDYWGQGTQVTVSS | low polyreactivity
QVQLVESGGGLVQAGGSLRLSCAAYGSTFNYKAMAWYRQAQGKERELVATITTSGGSTYYADSVKGRFTISRDNAKNTVYLQMNSLKPEDTAVYYCAARYPWSVYRIYGAHYDYWGQGTLVTVSS | low polyreactivity
QVQLVESGGGLVQAGGSLRLSCAAYGSTLATNAMGWYRPAPGKERELVAYADSVKGRFTISRDNAKNTVYLQMNSLKPEDTAVYYCAKDALVIDGGGGYDYWGQGTQVTVSS | low polyreactivity
QVQLVESGGGLVQAGGSLRLSCAAYGSTLLTYTMGWYRQAPGKERELVASITTSGGSTYYADSVKGRFTISRDNAKNTVYLQMNSLKPEDTAVYYWGQGTQVTVSS | low polyreactivity
QVQLVESGGGLVQAGGSLRLSCAAYGYTFRGYAMGRYRQAPGKEREFVAAINWSDGSTYYADSVKGRFTISRDNAKNTVYLQMNSLKPEDTAVYYCNADQYYRFPDNYLGQGTQVTVSS | low polyreactivity
QVQLVESGGGLVQAGGSLRLSCAAYYAMGWYRQAPVKERELVAAISSTGRTNYADSVKGRFTISRDNAKNTVYLQMNSLKPEDTAVYYCAAEWHYIYAYDYWGQGTQVTVSS | low polyreactivity
QVQLVESGGGLVQAGGSLRLSCADSARTFYYNTKGWYRQAPGKERELVASISGSGGRTYYADSVKGRFTISRDNAKNTVYLQMNSLKPEDTAVYYFAAGSIRYRFPFGYDYWGQGTQVTLSS | high polyreactivity
QVQLVESGGGLVQAGGSLRLSCADSGFIFAYYVMGWYRQAPGKERELVAAISRGGGSTYYADSVKGRFTISRDNAKYTVYLQMNSLKPEDTAVYYCATYSHALRYDYWGQGTQVTVSS | high polyreactivity
QVQLVESGGGLVQAGGSLRLSCADSGFIFPNYGMGSYRQAPGKERELVAYADSVKGRFTISRDNAKNTVYLQMNSLKPEDTAVYYCNADPPYTRWADYWHGGGYWGQGTQVTVSS | low polyreactivity
QVQLVESGGGLVQAGGSLRLSCADSGFIFSAHAMGGYSQAPGKDRELVAAISRTGGSTYYADSVKGRFTISRDNAKNTVYLQMNSLKPEETAGYYGAAYIRYGGLAYDSNYWGQGTQVTVSS | high polyreactivity
QVQLVESGGGLVQAGGSLRLSCADSGFIFVDYVMGWYRQSPGKERELVASISASGGTTYYADSVKGRLTISLDNAKNTVYLQMNSLKPEDTAVYYCNARWSPVNLRYGREGDYWGQGTQVTVSS | high polyreactivity

Sequence | polyreactivity (PSR sort gate)
QVQLVESGGGLVQAGGSLRLSCADSGFIFVVKAMGWYRQAPGKEREIVAVISSSTGSTYYADSVKGRFTISRDNAKNTVYLQLNSLKPEDTAVYSCAAASRRRRPLKRMYYWGQGTQVTVSS | low polyreactivity
QVQLVESGGGLVQAGGSLRLSCADSGFIFWYYAMGWYRQAPGKERELVAAISWSGDSTYYADSVKWRFTISRDTANNTVYLQMNSLKPEDTAVYYCAVYDELDVFYNGYDYWGQGTQVTVSS | high polyreactivity
QVQLVESGGGLVQAGGSLRLSCADSGFILWYNAMGWYRQAPGKERELVARIDVRGGSTYYADSVKGRFTISRDNAKNTVYLQMNSLKPEDTAVYYCARKRQGPASRARYDYWGQGTQVTVSS | low polyreactivity
QVQLVESGGGLVQAGGSLRLSCADSGFNFKYYAMGWYRQAPGKERELVATITSRGGSTYYADSVKGRFTISRDNAKNTVYLQMNSLKPEATAVYYCNARSSSPGKYGYWGQGTQVTVSS | high polyreactivity
QVQLVESGGGLVQAGGSLRLSCADSGFTFFSNAMGWYRQAPGKERELVAAITSSGRSTYADSVKGRYTISRDKAKNTVYLQMNSLKPEDSAVYYCAARRTGYLYRYGYWGQGTQVTVSS | low polyreactivity
QVQLVESGGGLVQAGGSLRLSCADSGFTFILYAMGWYRQAPGKERELVAAITTSGGRTYYADSVKGRFTISRDNAKNTVYLQMNSLKPEDTAVYYCAAKEYYTPYRRGYWGQGTQVTVSS | high polyreactivity
QVQLVESGGGLVQAGGSLRLSCADSGFTFPSYAMGGYRQAPGKERELVDVISRRGGSTYYADSVKGRFTISRDNAKNTVYLQMNSLKPEDTAVYYCARPRQPGSLYGYWGQGTQVTVSS | high polyreactivity
QVQLVESGGGLVQAGGSLRLSCADSGFTFPSYTMGWYRQAPGKERDLDASIRVSGGRTYYADSVKGRFTISRDNAKNTVYLQMNSLKPEDTAVYYCAADYMTWWGGRYDYWGQGTQVTVSS | high polyreactivity
QVQLVESGGGLVQAGGSLRLSCADSGFTFSLNTMGWYRQAPGKERELVAAINSGDSTYADSVKGRFTISRDNAKNTVYLQMNSLKPEDTAVYYCNADPDWWYPYIYWGQGTQVTVSS | low polyreactivity
QVQLVESGGGLVQAGGSLRLSCADSGFTFSQYAAIGWYRQAPGKERELVAAINISGSTNYADSVKGRFTISRDNAKNTVYLQMNSLKPEDTAVYYCAAQQSWKIYDYWGLGTQVTVSS | low polyreactivity
QVQLVESGGGLVQAGGSLRLSCADSGFTFTYYAMGWYRQAPGKERELVAGITRSGGSTYYADSVKGRFTISRDTAKNTVYLQMNSLKPEDTAVYYCAVKFVRYRQGIVLYDYWGQGTQVTVSS | high polyreactivity
QVQLVESGGGLVQAGGSLRLSCADSGITFYEFGMGWYRQAPGKERELVAAITTDGRTNYADSVKGRFTISRDNATNTVYLQMNILKPEDTAVYYCAVVHYFWGFYSVDYWGQGTQETVSS | high polyreactivity
QVQLVESGGGLVQAGGSLRLSCADSGLIIARNAMVWYRHAPGTERELVAAITRGGSTYYADSVKGSFTISRDNAKNTVYLLMNSLKPEDTAVYYCNARFRRYYYYGMDYWGQGTQVTVSS | high polyreactivity
QVQLVESGGGLVQAGGSLRLSCADSGNIFNYYAMGWYRQAPGKERELVAAISTSGGRTYYADSVKGRFTISRDNAKNTVYLQMNSLKPEDTAVYYCAKVNRLYTYDYWGQGTQVTVSS | high polyreactivity
QVQLVESGGGLVQAGGSLRLSCADSGNILGYNAMGSYRQAPGKATELVAAISDNADSTYYADSVKGRFTISRDNAKNTVYLQMKSLKPEDTAVYYGAADWVHRTWLFWYTKYDYWGQGTQVTVSS | low polyreactivity
QVQLVESGGGLVQAGGSLRLSCADSGNTFSYYAMGWYRQAPGKEREFVAAIRKSGASTYYADSVKGRFTISRDNAKNTVYLEMNSLKPEDTAVYYCAADGQVSYALGFDYCGQGTQVTVSS | high polyreactivity
QVQLVESGGGLVQAGGSLRLSCADSGNTLSYYVMGWYRQAPGKERELVADITSGGTTNYADSVKGRFTISRDNAKNTVYLQMNSLKAEDTAVYYCAAGPYKRPPWLRQGGYDYWGQGTQVTVSS | low polyreactivity
QVQLVESGGGLVQAGGSLRLSCADSGPTIFYYAMGWYRTAPGKERELVAAIRRSGGRTRYADSVKGRFTISRDNAKNTVYLQMNSLKPEDTAVYYCAADDGTHRRGYDYWGQGTQVTVSS | low polyreactivity
QVQLVESGGGLVQAGGSLRLSCADSGRIFDLNAMGWYRQAPGKERELVAAITWSGDSTYYADSVKGRFTISRDNAKNTVYLQMNSLKPEDTAVYYCAAASRTSYSWVDYEFDYWGQGTQVTVSS | low polyreactivity
QVQLVESGGGLVQAGGSLRLSCADSGRIFGRYAMGWYRQAPGKERDLVAAIRSGGSTYYADSVKGRFTISRDNAKNSVYLQMNSLKPEDTAVYYCAADWGPFRLGYGYYYWGQGTQVTVSS | high polyreactivity
QVQLVESGGGLVQAGGSLRLSCADSGRIFGSNAMGWYRQAPGKERELVAAISWRGASTYYADSVKGRFTISRDNAKNTVYLQMNSLKPEDTAVYYCATRGQTRTTTRYYSWGQGTQVTVSS | high polyreactivity
